Data taken from the RNAGym collection of RNA variant scans (doi:10.7554/elife.80360).

B1: HDV Ribozyme (parent)
chain: GGCCGGCAUGGUCCCAGCCUCCUCGCUGGCGCCGGCUGGGCAACAUUCCGAGGGGACCGUCCCCUCGGUAAUGGCGAAUGGGACCCA

Variants of: B1
Assay: self-cleavage, relative activity (ratio to wild type); higher = more cleavage; co-transcriptional

Variant	self-cleavage
GGCCGGCAUGGUCGCAGCCUCCUCGCUGGCGCCGGCUGGGCAACAUUCCGAGGCGACCGUCCCCUCGGUAAUGGCGAAUGGGACCCA [C14G G54C]	0.277
GGCCGGCAUGGUCGCAGCCUCCUCGCUGGCGCCGGCUGGGCAACAUUCCGAGGAGACCGUCCCCUCGGUAAUGGCGAAUGGGACCCA [C14G G54A]	0.639
GGCCGGCAUGGUCGCAGCCUCCUCGCUGGCGCCGGCUGGGCAACAUUCCGAGGUGACCGUCCCCUCGGUAAUGGCGAAUGGGACCCA [C14G G54U]	0.776
GGCCGGCAUGGUCGCAGCCUCCUCGCUGGCGCCGGCUGGGCAACAUUCCGAGGGGACCGUCCCCUCGGUAAUGGCGAAUGGCACCCA [C14G G82C]	0.525
GGCCGGCAUGGUCGCAGCCUCCUCGCUGGCGCCGGCUGGGCAACAUUCCGAGGGGACCGUCCCCUCGGUAAUGGCGAAUGGAACCCA [C14G G82A]	0.158
GGCCGGCAUGGUCGCAGCCUCCUCGCUGGCGCCGGCUGGGCAACAUUCCGAGGGGACCGUCCCCUCGGUAAUGGCGAAUGGUACCCA [C14G G82U]	0.196
GGCCGGCAUGGUCGCAGCCUCCUCGCUGGCUCCGGCUGGGCAACAUUCCGAGGGGACCGUCCCCUCGGUAAUGGCGAAUGGGACCCA [C14G G31U]	0.0386
GGCCGGCAUGGUCGCAGCCUCCUCGCUGGCACCGGCUGGGCAACAUUCCGAGGGGACCGUCCCCUCGGUAAUGGCGAAUGGGACCCA [C14G G31A]	0.324
GGCCGGCAUGGUCGCAGCCUCCUCGCUGGCGCCGGCUGGGCAACAUUCCUAGGGGACCGUCCCCUCGGUAAUGGCGAAUGGGACCCA [C14G G50U]	0.639
GGCCGGCAUGGUCGCAGCCUCCUCGCUGGCGCCGGCUGGGCAACAUUCCAAGGGGACCGUCCCCUCGGUAAUGGCGAAUGGGACCCA [C14G G50A]	1.15
GGCCGGCAUGGUCGCAGCCUCCUCGCUGGCGCCGGCUGGGCAACAUUCCGAGGGGAGCGUCCCCUCGGUAAUGGCGAAUGGGACCCA [C14G C57G]	0.782
GGCCGGCAUGGUCGCAGCCUCCUCGCUGGCGCCGGCUGGGCAACAUUCCGAGGGGAUCGUCCCCUCGGUAAUGGCGAAUGGGACCCA [C14G C57U]	0.665
GGCCGGCAUGGUCGCAGCCUCCUCGCUGGCGCCGGCUGGGCAACAUUCCGAGGGGAACGUCCCCUCGGUAAUGGCGAAUGGGACCCA [C14G C57A]	0.748
GGCCGGCAUGGUCGCAGCCUCCUCGCUGGCGCCGGCUGGGCAACAUUCCGAGGGGACCGUCCCCUCGGUAAUGGCUAAUGGGACCCA [C14G G76U]	0.985
GGCCGGCAUGGUCGCAGCCUCCUCGCUGGCGCCGGCUGGGCAACAUUCCGAGGGGACCGUCCCCUCGGUAAUGGCAAAUGGGACCCA [C14G G76A]	0.831
GGCCGGCAUGGUCGCAGCCUCCUCGCUGGCGCCGGCUGGGCAACAUUCCGAGGGGACCGUCCCCUCGGUAAUGGCCAAUGGGACCCA [C14G G76C]	0.731
GGCCGGCAUGGUCGCAGCCUCCUCGCUGGCGCCGGCUGGGCAACAUUCCGAGGGGACCGUCCCCUCGGUAAUGGCGAAUGUGACCCA [C14G G81U]	0.923
GGCCGGCAUGGUCGCAGCCUCCUCGCUGGCGCCGGCGGGGCAACAUUCCGAGGGGACCGUCCCCUCGGUAAUGGCGAAUGGGACCCA [C14G U37G]	0
GGCCGGCAUGGUCGCAGCCUCCUCGCUGGCGCCGGCUGGGCAACAUUCCGAGGGGACUGUCCCCUCGGUAAUGGCGAAUGGGACCCA [C14G C58U]	0.646
GGCCGGCAUGGUCGCAGCCUCCUCGCUGGCGCCGGCUGGGCAACAUUCCGAGGGGACCGUCCCCUCGGUAAUGGCGAAUGGGACCGA [C14G C86G]	0.604
GGCCGGCAUGGUCGCAGCCUCCUCGCUGGCGCCGGCUGGGCAACAUUCCGAGGGGACCGUCCCCUCGGUAAUGGCGAAUGGGACCAA [C14G C86A]	1.03
GGCCGGCAUGGUCGCAGCCUCCUCGCUGGCGCCGGCUGGGCAACAUUCCGAGGGGACCGUCCCCUCGGUAAUGGCGAAUGGGACGCA [C14G C85G]	0.415

Variant	self-cleavage
GGCCGGCAUGGUCGCAGCCUCCUCGCUGGCGCCGGCUGGGCAACAUUCCGAGGGGACCGUCCCCUCGGUAAUGGCGAAUGGGACACA [C14G C85A]	0.166
GGCCGGCAUGGUCGCAGCCUCCUCGCUGGCGCCGGCUGGGCAACAUUCCGAGGGCACCGUCCCCUCGGUAAUGGCGAAUGGGACCCA [C14G G55C]	0.665
GGCCGGCAUGGUCGCAGCCUCCUCGCUGGCGCCGGCUGGGCAACAUUCCGAGGGAACCGUCCCCUCGGUAAUGGCGAAUGGGACCCA [C14G G55A]	0.59
GGCCGGCAUGGUCGCAGCCUCCUCGCUGGCGCCGGCUGGGCAACAUUCCGAGGGUACCGUCCCCUCGGUAAUGGCGAAUGGGACCCA [C14G G55U]	0.682
GGCCGGCAUGGUCGCAGCCUCCUCGCUGGCGCCGGCUGGGCAACAUUCCGAGGGGACCGUCCCCUCCGUAAUGGCGAAUGGGACCCA [C14G G67C]	0.554
GGCCGGCAUGGUCGCAGCCUCCUCUCUGGCGCCGGCUGGGCAACAUUCCGAGGGGACCGUCCCCUCGGUAAUGGCGAAUGGGACCCA [C14G G25U]	0.0504
GGCCGGCAUGGUCGCAGCCUCCUCCCUGGCGCCGGCUGGGCAACAUUCCGAGGGGACCGUCCCCUCGGUAAUGGCGAAUGGGACCCA [C14G G25C]	0
GGCCGGCAUGGUCGCAGCCUCCUCGCUGGCGCCGGCUGGGCAACAUUCCGAGGGGACCGUCCCCUCGGUAAUGGCGAAUAGGACCCA [C14G G80A]	0.346
GGCCGGCAUGGUCGCAGCCUCCUCGCUGGCGCCGGCUGGGCAACAUUCCGAGGGGACCGGCCCCUCGGUAAUGGCGAAUGGGACCCA [C14G U60G]	0.511
GGCCGGCAUGGUCGCAGCCUCCUCGCUGACGCCGGCUGGGCAACAUUCCGAGGGGACCGUCCCCUCGGUAAUGGCGAAUGGGACCCA [C14G G29A]	0.107
GGCCGGCAUGGUCGCAGCCUCCUCGCUGGCGCCGGCUGGGCAACAUUCCGAGGGGACCGUCCCCUCGAUAAUGGCGAAUGGGACCCA [C14G G68A]	0.431
GGCCGGCAUGGUCGCAGCCUCCUCGCAGGCGCCGGCUGGGCAACAUUCCGAGGGGACCGUCCCCUCGGUAAUGGCGAAUGGGACCCA [C14G U27A]	0.7
GGCCGGCAUGGUCGCAGCCACCUCGCUGGCGCCGGCUGGGCAACAUUCCGAGGGGACCGUCCCCUCGGUAAUGGCGAAUGGGACCCA [C14G U20A]	0
GGCCGGCAUGGUCGCAGCCCCCUCGCUGGCGCCGGCUGGGCAACAUUCCGAGGGGACCGUCCCCUCGGUAAUGGCGAAUGGGACCCA [C14G U20C]	0.0554
GGCCGGCAUGGUCGCAGCCUCCUCGCUGGCGCCGGCUGGGCAACAUUCCGAGGGGACCCUCCCCUCGGUAAUGGCGAAUGGGACCCA [C14G G59C]	0.969
GGCCGGCAUGGUCGCAGCCUCCUCGCUGGCGCCGGCUGGGCAACAUUCCGAGAGGACCGUCCCCUCGGUAAUGGCGAAUGGGACCCA [C14G G53A]	0.86
GGCCGGCAUGGUCGCAGCCUCCUCGCUGGCGCCUGCUGGGCAACAUUCCGAGGGGACCGUCCCCUCGGUAAUGGCGAAUGGGACCCA [C14G G34U]	0.0594
GGCCGGCAUGGUCGCAGCCUCCUCGCUGGCGCCCGCUGGGCAACAUUCCGAGGGGACCGUCCCCUCGGUAAUGGCGAAUGGGACCCA [C14G G34C]	0.138
GGCCGGCAUGGUCGCAGCCUCCUCGCUGGCGCCGGCUGGGCAACAUUCCGAUGGGACCGUCCCCUCGGUAAUGGCGAAUGGGACCCA [C14G G52U]	0.391
GGCCGGCAUGGUCGCAGCCUCCUCGCUGGCGCCGGCUGGGCAACAUUCCGAGGGGACCGUCCCCUCGGUAAUGGGGAAUGGGACCCA [C14G C75G]	0.0554
GGCCGGCAUGGUCGCAGCCUCCUCGCUGGCGCCGGCUGGGCAACAUUCCGAGGGGACCGUCCCCUCGGUAAUGGUGAAUGGGACCCA [C14G C75U]	0.155
GGCCGGCAUGGUCGCAGCCUCCUCGCUGGCGCCGGCUGGGCAACAAUCCGAGGGGACCGUCCCCUCGGUAAUGGCGAAUGGGACCCA [C14G U46A]	0.237

Variant	self-cleavage
GGCCGGCAUGGUCGCAGCCUCCUCGCUGGCGCCGGCUGGGCAACAGUCCGAGGGGACCGUCCCCUCGGUAAUGGCGAAUGGGACCCA [C14G U46G]	0.237
GGCCGGCAUGGUCGCAGCCUCCUCGCUGGCGCCGGCUGGACAACAUUCCGAGGGGACCGUCCCCUCGGUAAUGGCGAAUGGGACCCA [C14G G40A]	0.623
GGCCGGCAUGGUCGCAGCCUCCUCGCUGGCGCCGGCUGGCCAACAUUCCGAGGGGACCGUCCCCUCGGUAAUGGCGAAUGGGACCCA [C14G G40C]	0
GGCCGGCAUGGUCGCAGCCUCCUCGCUGGCGCCGGCUGGGCAACAUGCCGAGGGGACCGUCCCCUCGGUAAUGGCGAAUGGGACCCA [C14G U47G]	0.383
GGCCGGCAUGGUCGCAGCCUCCUCGCUGGCGCCGGCUGGGCAACAUCCCGAGGGGACCGUCCCCUCGGUAAUGGCGAAUGGGACCCA [C14G U47C]	0.604
GGCCGGCAUGGUCGCAGCCUCCUCGCUGGCGCCGGCUUGGCAACAUUCCGAGGGGACCGUCCCCUCGGUAAUGGCGAAUGGGACCCA [C14G G38U]	0.106
GGCCGGCAUGGUCGCAGCCUCCUCGCUGGCGCCGGCUGGGCAACAUUCCGAGGGGACCGUCCCAUCGGUAAUGGCGAAUGGGACCCA [C14G C64A]	0.511
GGCCGGCAUGGUCGCAGCCUCCUCGCUGGCGCCGGCUGGGCAACAUUCCGAGGGGACCGUCCCUUCGGUAAUGGCGAAUGGGACCCA [C14G C64U]	0.516
GGCCGGCAUGGUCGCAGCCUCCGCGCUGGCGCCGGCUGGGCAACAUUCCGAGGGGACCGUCCCCUCGGUAAUGGCGAAUGGGACCCA [C14G U23G]	0.453
GGCCGGCAUGGUCGCAGCCUCCCCGCUGGCGCCGGCUGGGCAACAUUCCGAGGGGACCGUCCCCUCGGUAAUGGCGAAUGGGACCCA [C14G U23C]	0.712
GGCCGGCAUGGUCGCAGCCUCCUCGCUGGCGCCGGCUGGGCAACAUUCCGAGGGGACCGUUCCCUCGGUAAUGGCGAAUGGGACCCA [C14G C61U]	0.598
GGCCGGCAUGGUCGCACCCUCCUCGCUGGCGCCGGCUGGGCAACAUUCCGAGGGGACCGUCCCCUCGGUAAUGGCGAAUGGGACCCA [C14G G17C]	0.0615
GGCCGGCAUGGUCGCAGCCUCCUCGCUGGCGCCGGCUGGGCAACAUUCCGAGGGGACCGUCCCCUAGGUAAUGGCGAAUGGGACCCA [C14G C66A]	0.665
GGCCGGCAUGGUCGCAGCCUCCUCGCUGGCGCCGGCUGGGCAACAUUCCGAGGGGACCGUCCGCUCGGUAAUGGCGAAUGGGACCCA [C14G C63G]	0.573
GGCCGGCAUGGUCGCAGCCUCCUCGCUGGCGCCGGCUGGGCAACAUUCCGAGGGGACCGUCCUCUCGGUAAUGGCGAAUGGGACCCA [C14G C63U]	0.9
GGCCGGCAUGGUCGCAGCCUCCUCGCUGGCGCCGGCUGGGCAACAUUCCGAGGGGACCGUCCCCUCGGUAAUGGCGAAUGGGAUCCA [C14G C84U]	0.415
GGCCGGCAUGGUCGCAGCCUCCUCGCUCGCGCCGGCUGGGCAACAUUCCGAGGGGACCGUCCCCUCGGUAAUGGCGAAUGGGACCCA [C14G G28C]	0.0415
GGCCGGCAUGGUCGCAGCCUCCUCGCUGGCGCCGGCUGUGCAACAUUCCGAGGGGACCGUCCCCUCGGUAAUGGCGAAUGGGACCCA [C14G G39U]	0.237
GGCCGGCAUGGUCGCAGCCUCCUCGCUGGCGCCGGCUGCGCAACAUUCCGAGGGGACCGUCCCCUCGGUAAUGGCGAAUGGGACCCA [C14G G39C]	0.217
GGCCGGCAUGGUCGCAGCCUCCUCGCUGGCGCCGGCUGAGCAACAUUCCGAGGGGACCGUCCCCUCGGUAAUGGCGAAUGGGACCCA [C14G G39A]	0.277
